According to article PMC6891851 (ACS Central Science, 2019):
Square brackets hold non-standard residues; d marks the D form.

Biological target: the molecule itself
Experiment: hydrogelation with CD, TEM and rheology

B1: AcVES3 peptide hydrogel (peptide)
peptide: Ac-VEVSVSVEV[dP]PTEVSVEVEV-NH2
SMILES: CC(=O)N[C@H](C(=O)N[C@@H](CCC(=O)O)C(=O)N[C@H](C(=O)N[C@@H](CO)C(=O)N[C@H](C(=O)N[C@@H](CO)C(=O)N[C@H](C(=O)N[C@@H](CCC(=O)O)C(=O)N[C@H](C(=O)N1CCC[C@@H]1C(=O)N1CCC[C@H]1C(=O)N[C@H](C(=O)N[C@@H](CCC(=O)O)C(=O)N[C@H](C(=O)N[C@@H](CO)C(=O)N[C@H](C(=O)N[C@@H](CCC(=O)O)C(=O)N[C@H](C(=O)N[C@@H](CCC(=O)O)C(=O)N[C@H](C(N)=O)C(C)C)C(C)C)C(C)C)C(C)C)[C@@H](C)O)C(C)C)C(C)C)C(C)C)C(C)C)C(C)C
binding result: binds
